According to PMC3032389:

Molecular target: NMDA receptor NR1-1a subunit, full length (rat)
Experiment: co-IP

Csk co-precipitated with NR1 after PP2 (10 μM), percent of that without PP2: 48%
Substance: C-terminal Src kinase (Csk) (from UniProt P41240 1-450) (enzyme)
